In doi:10.1101/2025.10.16.682774 (bioRxiv, 2025):

Target: T1, flag-tagged p115 head domain (1-655) (human, UniProt O60763 1-655)
T1 sequence (looked up): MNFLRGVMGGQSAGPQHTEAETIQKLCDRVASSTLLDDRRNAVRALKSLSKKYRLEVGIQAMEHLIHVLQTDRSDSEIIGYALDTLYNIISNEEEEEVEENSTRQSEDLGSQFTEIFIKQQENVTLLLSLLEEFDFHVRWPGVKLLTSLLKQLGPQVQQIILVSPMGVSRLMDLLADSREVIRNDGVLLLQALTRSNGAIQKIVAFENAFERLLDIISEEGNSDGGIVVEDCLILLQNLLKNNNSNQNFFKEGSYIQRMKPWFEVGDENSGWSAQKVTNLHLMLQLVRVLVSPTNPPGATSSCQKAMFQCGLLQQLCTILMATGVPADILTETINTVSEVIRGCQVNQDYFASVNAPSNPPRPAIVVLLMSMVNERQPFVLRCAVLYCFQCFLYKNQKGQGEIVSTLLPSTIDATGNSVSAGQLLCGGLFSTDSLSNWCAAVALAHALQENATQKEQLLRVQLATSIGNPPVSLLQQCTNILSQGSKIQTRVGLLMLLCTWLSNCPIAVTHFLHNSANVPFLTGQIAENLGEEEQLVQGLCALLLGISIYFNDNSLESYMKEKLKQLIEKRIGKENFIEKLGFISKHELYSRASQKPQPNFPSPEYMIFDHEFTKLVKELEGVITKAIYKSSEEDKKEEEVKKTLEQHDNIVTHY
Assay: pull-down

B1: Sec16A(650-776)-GFP (domain or fragment, human, UniProt O15027 650-776, looked up)
chain: ALPDASPGNLEQPPDNMETLCAPQVCPLPLNSTTEAVHMLPHAGAPPLDTVYPAPEKRPSARTQGPVKCESPATTLWAQSELPDFGGNVLLAPAAPALYVCAKPQPPVVQPPEEAMSGQQSRNPSSA
Does B1 bind?
Result: binds
